Test results: publication PMC12096823, “SloR-SRE binding to the S. mutans mntH promoter is cooperative”

Columns and labels:
[1] = target: T1, SloR (Streptococcus mutans UA159?) (UniProt I6L923); experiment: footprinting; conditions: BLI: PBS pH 7.2, 0.1% Tween-20, 100 uM MnCl2, 30 C; EMSA: 60-200 nM SloR, 16 uL, 12% native gel, buffer as cited; footprinting: 8.4 mM NaH2PO4, 11.6 mM …
T1 sequence: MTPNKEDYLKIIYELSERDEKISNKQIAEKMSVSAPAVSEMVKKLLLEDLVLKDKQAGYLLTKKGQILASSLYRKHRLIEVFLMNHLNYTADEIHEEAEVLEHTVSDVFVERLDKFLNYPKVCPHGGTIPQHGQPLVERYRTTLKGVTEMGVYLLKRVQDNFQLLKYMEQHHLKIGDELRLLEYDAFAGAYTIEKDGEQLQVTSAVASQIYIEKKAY

[2] = target: T1, SloR (Streptococcus mutans UA159?); experiment: EMSA; conditions: BLI: PBS pH 7.2, 0.1% Tween-20, 100 uM MnCl2, 30 C; EMSA: 60-200 nM SloR, 16 uL, 12% native gel, buffer as cited; footprinting: 8.4 mM NaH2PO4, 11.6 mM …
SloR [3] = target: T2, SloR (UniProt I6L923 1-217); experiment: EMSA; BLI: PBS pH 7.2, 0.1% Tween-20, 100 uM MnCl2, 30 C; EMSA: 60-200 nM SloR, 16 uL, 12% native gel, buffer as cited; footprinting: 8.4 mM NaH2PO4, 11.6 mM Na2HPO4, 50 mM NaCl, 5 mM MgCl2, 10 ug/mL BSA, 200 ug/mL salmon sperm DNA, 7.5 uM MnCl2, 30 C; conditions: protein: recombinant; tags: native (untagged) SloR purified for EMSA and footprinting; chain copies: 2; label: 5' 32P; blunt
T2 sequence: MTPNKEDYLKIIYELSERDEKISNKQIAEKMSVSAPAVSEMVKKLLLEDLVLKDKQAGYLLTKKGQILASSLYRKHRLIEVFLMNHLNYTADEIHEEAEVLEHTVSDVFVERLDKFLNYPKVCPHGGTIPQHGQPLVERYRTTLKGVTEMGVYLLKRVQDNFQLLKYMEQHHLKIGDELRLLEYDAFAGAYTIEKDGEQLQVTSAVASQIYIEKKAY

SloR (BLI preparation) [4] = target: T3, SloR (BLI preparation) (UniProt I6L923 1-217); experiment: BLI; 100 uM MnCl2; BLI: PBS pH 7.2, 0.1% Tween-20, 100 uM MnCl2, 30 C; EMSA: 60-200 nM SloR, 16 uL, 12% native gel, buffer as cited; footprinting: 8.4 mM NaH2PO4, 11.6 mM Na2HPO4, 50 mM NaCl, 5 mM MgCl2, 10 ug/mL BSA, 200 ug/mL salmon sperm DNA, 7.5 uM MnCl2, 30 C; conditions: protein: recombinant; tags: immobilized on NTA biosensor; chain copies: 2; blunt
T3 sequence: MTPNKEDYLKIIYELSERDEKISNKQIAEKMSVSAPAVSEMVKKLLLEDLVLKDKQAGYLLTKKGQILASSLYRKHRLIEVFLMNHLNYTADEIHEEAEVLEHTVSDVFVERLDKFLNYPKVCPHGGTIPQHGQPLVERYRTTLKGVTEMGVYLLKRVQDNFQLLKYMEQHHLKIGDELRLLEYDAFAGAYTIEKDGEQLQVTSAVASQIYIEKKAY

SloR (BLI preparation) [5] = target: T3, SloR (BLI preparation); experiment: BLI; 100 uM MnCl2; DNA up to 20 uM; BLI: PBS pH 7.2, 0.1% Tween-20, 100 uM MnCl2, 30 C; EMSA: 60-200 nM SloR, 16 uL, 12% native gel, buffer as cited; footprinting: 8.4 mM NaH2PO4, 11.6 mM Na2HPO4, 50 mM NaCl, 5 mM MgCl2, 10 ug/mL BSA, 200 ug/mL salmon sperm DNA, 7.5 uM MnCl2, 30 C; conditions: protein: recombinant; tags: immobilized on NTA biosensor; chain copies: 2; blunt
SloR [6] = target: T2, SloR; experiment: EMSA; 60 nM SloR; two band shifts, intensity 1.3 and 0.03 AU; BLI: PBS pH 7.2, 0.1% Tween-20, 100 uM MnCl2, 30 C; EMSA: 60-200 nM SloR, 16 uL, 12% native gel, buffer as cited; footprinting: 8.4 mM NaH2PO4, 11.6 mM Na2HPO4, 50 mM NaCl, 5 mM MgCl2, 10 ug/mL BSA, 200 ug/mL salmon sperm DNA, 7.5 uM MnCl2, 30 C; conditions: protein: recombinant; tags: native (untagged) SloR purified for EMSA and footprinting; chain copies: 2; label: 5' 32P; blunt
SloR [7] = target: T2, SloR; experiment: EMSA; 60 nM SloR; BLI: PBS pH 7.2, 0.1% Tween-20, 100 uM MnCl2, 30 C; EMSA: 60-200 nM SloR, 16 uL, 12% native gel, buffer as cited; footprinting: 8.4 mM NaH2PO4, 11.6 mM Na2HPO4, 50 mM NaCl, 5 mM MgCl2, 10 ug/mL BSA, 200 ug/mL salmon sperm DNA, 7.5 uM MnCl2, 30 C; conditions: protein: recombinant, tags: native (untagged) SloR purified for EMSA and footprinting, chain copies: 2, blunt
SloR (BLI preparation) [8] = target: T3, SloR (BLI preparation); experiment: BLI; 100 uM MnCl2; Kd only in figure; BLI: PBS pH 7.2, 0.1% Tween-20, 100 uM MnCl2, 30 C; EMSA: 60-200 nM SloR, 16 uL, 12% native gel, buffer as cited; footprinting: 8.4 mM NaH2PO4, 11.6 mM Na2HPO4, 50 mM NaCl, 5 mM MgCl2, 10 ug/mL BSA, 200 ug/mL salmon sperm DNA, 7.5 uM MnCl2, 30 C; conditions: protein: recombinant; tags: immobilized on NTA biosensor; chain copies: 2; label: 5' 32P in EMSA; blunt

For “GATTGTTTAGACATCTCTGATTAATTTTCCATAATCTCTATTGTGTTTTATACTGTCAGTAATTCTTACAAACTCTTTATATTCAGTAATAATAGGTACACCTTTTTTAATTTTTAAGCATACTTAACATATGCTGTTTTTTATGCTATAATGCAATTAACCCAATTATATTAGAAAAGAGATTTTCAAAATGAAAACTCATCCAAAAAAGCAATCACTCAGCGAGGTCAATCAGAGCGTTCGTGTTCCTAAAAATGCCTCTTTTTTAACAACTTTAAGAGCTTTTTTAGG (double strand) [mntH 291-bp footprint amplicon]”, the binding [1] was “binds”.

“GCATACTTAACATATGCTGTTTTTTATGCTATAATGCAATTAACCCAATTATATTAGAAAAGAGATTTTCAAAATGAAAACTCATCCAAAAAAGCAATCACTCAGCGAGGT (double strand) [mntH 111-bp probe (-75 to +36 of coding)]” was tested, and the binding [2] was “no binding”.

B1: mntH.22.SRE1.10IR (SRE1 spacer with -10 SRE IRs) (dsDNA)
DNA 1: GCAATTAAGCATACTATATTAG
DNA 2: CTAATATAGTATGCTTAATTGC
B1: no binding (SloR [3]).

B2: mntH 100-bp deletion amplicon (dsDNA)
DNA 1: AGGTACACCTTTTTTAATTTTTAAGCATACTTAACATATGCTGTTTTTTATGCTATAATGCAATTAACCCAATTATATTAGAAAAGAGATTTTCAAAATG
DNA 2: CATTTTGAAAATCTCTTTTCTAATATAATTGGGTTAATTGCATTATAGCATAAAAAACAGCATATGTTAAGTATGCTTAAAAATTAAAAAAGGTGTACCT
B2: binds (SloR [3]).

B3: sloA.72.WT (dsDNA)
DNA 1: AGCCTTAATTAATGTAGATTATATTTTTAATTGAACTGAATTAAAAATATAATCCAATATAATGAATATTTT
DNA 2: AAAATATTCATTATATTGGATTATATTTTTAATTCAGTTCAATTAAAAATATAATCTACATTAATTAAGGCT
In the case of B3, the Kd (SloR (BLI preparation) [4]) is reported as about 31 nM.

B4: mntH.22.SRE2.WT (dsDNA)
DNA 1: AATAATAGGTACACCTTTTTTA
DNA 2: TAAAAAAGGTGTACCTATTATT
B4: no binding (SloR (BLI preparation) [5]).

B5: mntH.90.WT (dsDNA)
DNA 1: GTAATTCTTACAAACTCTTTATATTCAGTAATAATAGGTACACCTTTTTTAATTTTTAAGCATACTTAACATATGCTGTTTTTTATGCTA
DNA 2: TAGCATAAAAAACAGCATATGTTAAGTATGCTTAAAAATTAAAAAAGGTGTACCTATTATTACTGAATATAAAGAGTTTGTAAGAATTAC
B5 was tested, and the Kd (SloR (BLI preparation) [4]) was about 33 nM.

B6: mntH 159-bp promoter probe (dsDNA)
DNA 1: TCTCTATTGTGTTTTATACTGTCAGTAATTCTTACAAACTCTTTATATTCAGTAATAATAGGTACACCTTTTTTAATTTTTAAGCATACTTAACATATGCTGTTTTTTATGCTATAATGCAATTAACCCAATTATATTAGAAAAGAGATTTTCAAAATG
DNA 2: CATTTTGAAAATCTCTTTTCTAATATAATTGGGTTAATTGCATTATAGCATAAAAAACAGCATATGTTAAGTATGCTTAAAAATTAAAAAAGGTGTACCTATTATTACTGAATATAAAGAGTTTGTAAGAATTACTGACAGTATAAAACACAATAGAGA
B6: binds (SloR [3]).

B7: mntH.100.WT (dsDNA)
DNA 1: TACTGTCAGTAATTCTTACAAACTCTTTATATTCAGTAATAATAGGTACACCTTTTTTAATTTTTAAGCATACTTAACATATGCTGTTTTTTATGCTATA
DNA 2: TATAGCATAAAAAACAGCATATGTTAAGTATGCTTAAAAATTAAAAAAGGTGTACCTATTATTACTGAATATAAAGAGTTTGTAAGAATTACTGACAGTA
B7: binds (SloR [6]).

B8: mntH.100.CC.CT (SRE1+SRE2 mutant) (dsDNA)
DNA 1: TACTGTCAGTAATTCTTACAAACTCTTTATATTCAGTAATAATCTGTACACCTTTTTTAATTTTTCCGCATACTTAACATATGCTGTTTTTTATGCTATA
DNA 2: TATAGCATAAAAAACAGCATATGTTAAGTATGCGGAAAAATTAAAAAAGGTGTACAGATTATTACTGAATATAAAGAGTTTGTAAGAATTACTGACAGTA
B8: no binding (SloR [7]; label: 5' 32P).

B9: mntH.22.SRE1.w10.spcr (spacer variant) (dsDNA)
DNA 1: ATTTTTAACCCAATTTAACATA
DNA 2: TATGTTAAATTGGGTTAAAAAT
B9: no binding (SloR [3]).

B10: mntH.22.SRE1.WT (dsDNA)
DNA 1: ATTTTTAAGCATACTTAACATA
DNA 2: TATGTTAAGTATGCTTAAAAAT
B10: binds (SloR [7]; label: 5' 32P in EMSA); binds (SloR (BLI preparation) [8]).

B11: mntH.22.SRE1.CC (left IR mutant) (dsDNA)
DNA 1: ATTTTTCCGCATACTTAACATA
DNA 2: TATGTTAAGTATGCGGAAAAAT
B11: no binding (SloR [3]).
